# Patent US20110076682A1 (WISCONSIN ALUMNI RESEARCH FOUNDATION, published 2011)
# T1: N-EYFP::VeA (Aspergillus nidulans, UniProt C8VTV4 1-573)
# T1 construct: BiFC construct expressed in A. nidulans (pME3188, pME3189); also called enhanced yellow fluorescent protein fused to the N terminus of veA; not shown: N-terminal part of EYFP (n-eyfp)
# T1 sequence: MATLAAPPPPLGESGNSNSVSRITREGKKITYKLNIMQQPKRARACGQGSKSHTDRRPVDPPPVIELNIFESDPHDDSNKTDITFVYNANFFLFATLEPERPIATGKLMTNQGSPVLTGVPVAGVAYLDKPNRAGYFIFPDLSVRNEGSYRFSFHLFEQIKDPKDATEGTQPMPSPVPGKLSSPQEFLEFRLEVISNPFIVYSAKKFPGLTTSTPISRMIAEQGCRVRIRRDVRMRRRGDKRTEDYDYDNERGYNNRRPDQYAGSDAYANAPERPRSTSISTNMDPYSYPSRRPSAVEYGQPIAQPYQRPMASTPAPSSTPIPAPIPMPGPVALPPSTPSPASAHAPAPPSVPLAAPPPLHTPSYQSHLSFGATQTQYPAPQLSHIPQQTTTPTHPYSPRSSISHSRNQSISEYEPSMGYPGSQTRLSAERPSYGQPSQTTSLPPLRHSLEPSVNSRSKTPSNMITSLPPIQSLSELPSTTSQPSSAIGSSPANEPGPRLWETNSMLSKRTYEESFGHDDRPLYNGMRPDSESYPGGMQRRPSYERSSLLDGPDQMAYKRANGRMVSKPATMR
# T2: VeA::TAP* (VeA tagged at its C terminus by TAP tag, veA::ctap*) (Aspergillus nidulans, UniProt C8VTV4 1-573)
# T2 construct: 85 kDa on the immunoblot; also called tagged VeA; VeA::TAP* tag
# T2 sequence: T1 sequence
# T3: VeA yeast two-hybrid fusion (veA ORF in pTLexA or pGAD424) (Aspergillus nidulans, UniProt C8VTV4 1-573)
# T3 construct: also called pNJ04; pNJ05
# T3 sequence: T1 sequence
# B1: C-EYFP::LaeA (other)
# chain: MFEMGPVGTRLPAMTSPAHNHYSYHSPTSSDRGRSRQNSDAMDIQSITEREPATRYAVAGGPAPWNRNGSPSMSPMYSNNSERNQFHEENGRTYHGFRRGMYFLPCDEQEQDRLDIFHKLFTVARVSESLIYAPHPTNGRFLDLGCGTGIWAIEVANKYPDAFVAGVDLAPIQPPNHPKNCEFYAPFDFEAPWAMGEDSWDLIHLQMGCGSVMGWPNLYRRIFAHLRPGAWFEQVEIDFEPRCDDRSLDGTALRHWYDCLKQATAETMRPIAHSSRDTIKDLQDAGFTEIDHQIVGLPLNPWHQDEHERKVARWYNLAVSESIENLSLAPFSRVYRWPLERIQQLAADVKSEAFNKEIHAYNILHIYQARKPLR
# notes: BiFC construct expressed in A. nidulans (pME3188, strain AGB307); not shown: C-terminal part of EYFP (c-eyfp)
# B2: LaeA (other)
# chain: B1 chain
# notes: Endogenous untagged protein co-purified from A. nidulans extracts; also called regulator LaeA
# B3: regulator of sporogenesis VosA (other)
# chain: MSAANYPDPSLPRPSTSDDFELIVRQNPNRARVAGGKEKERKPVDPPPIVQIRVREEGTYLAQHYLQSPYFFMSCSLYDAQEDAPASIPPSTALTGTLVSSLHRLKDVDNTDGGFFVWGDLSIKVEGDFRLKFSLFEMRKTDVVFLKSIVSERFTVSPPKSFPGMAESTFLSRSFADQGVKLRIRKEPRTLIKRTAPRPEEYPQAAIPRSPSDRTAMQIPGSSYPAPPYQPTSRDYSYYAPVKRQRTSVDYGARGMYDADGRMRQMETYPQTATLYGQPGGYPTPMMGYPSGHGGVPDYAMSYGLPPSAQVPQMQDPAAQSRSSQQATMQSLGMVNPPGTPTPDSARAMMQQAYPRPQYSASTAVLPPLQQSRNYPQGTNGATRGYYEQSPQATPILPSQPLGTSEAERYGVPPGHTGYDHTGSANGTPR
# notes: Endogenous untagged protein co-purified from A. nidulans extracts
# B4: VelB yeast two-hybrid fusion (velB ORF in pTLexA or pGAD424) (other)
# chain: MYAVEDRAHSGHHPPPLSMDRIPPPSTMYPSSAGPSAMVSPAGQPEPESLSTVHDGRIWSLQVVQQPIRARMCGFGDKDRRPITPPPCIRLIVKDAQTQKEVDINSLDSSFYVVMADLWNADGTHEVNLVKHSATSPSISTAMSSSYPPPPHPTSSDYPASYQTNPYGQPVGQPVGQPVGYAGVGNYYGGSTQLQYQNAYPNPQAQYYQPMYGGMAQPQMPAAQPVTPGPGGMFTRNLIGCLSASAYRLYDTEDKIGVWFVLQDLSVRTEGIFRLKFSFVNVGKSVSDLPQSDIAEVINKGTAPILASTFSEPFQVFSAKKFPGVIESTPLSKVFANQGIKIPIRKDGVKGQGSRGRHSDEDDGLDNEY
# notes: also called pNJ20; pNJ23
# B5: C-EYFP::VelB (other)
# chain: B4 chain
# notes: BiFC construct expressed in A. nidulans (pME3189, strain AGB388); not shown: C-terminal part of EYFP (c-eyfp)
# Assays:
# N-EYFP::VeA = molecular target: T1, N-EYFP::VeA; experiment: bimolecular fluorescence complementation in living A. nidulans cells
# [1] = molecular target: T2, VeA::TAP* (VeA tagged at its C terminus …); experiment: tandem affinity purification of veA::ctap* and mass spectrometry, dark
# [2] = molecular target: T2, VeA::TAP* (VeA tagged at its C terminus …); experiment: tandem affinity purification and mass spectrometry, dark
# [3] = molecular target: T3, VeA yeast two-hybrid fusion (veA ORF in …); experiment: yeast two-hybrid
binder,measurement,setting,value
B1,binding result,N-EYFP::VeA,binds
B2,binding result,[1],binds
B3,binding result,[2],no binding
B4,binding result,[3],binds
B5,binding result,N-EYFP::VeA,binds
